Experimental findings from patent US11738082B2, “High concentration protein formulations with reduced viscosity” (Bhami's Research Laboratory, Pvt. Ltd., priority 2017, dated 2023) are described below.

In series [1] the test system is Rituximab (RITUXAN®). Description: Size Exclusion Chromatography of formulated Rituximab on storage. Type of series: physicochemical. As to conditions: storage at 25° C., formulated with tryptophan + nicotinic acid (acid form), 250 mg/mL, SEC. (In general: In gel filtration, larger molecules generally elute earlier.)
The subject of series [2] is Rituximab (RITUXAN®). The series can be described thus: Percent reduction in aggregation of Rituximab by Size Exclusion Chromatography. The class given is physicochemical. As to conditions: with nicotinic acid and tryptophan, 250-275 mg/mL, versus control at 0 time point = 100%. The method, then:
To the buffered antibody solutions, different aggregation reducing-agents were added individually or in combination and mixed until complete dissolution. […] The collected protein sample was stored at 4° C. […] The amount of reduction in aggregation is calculated setting the values at 0 time point equal to 100% in control (without any aggregation-reducing agent) and the reduction in aggregation in test samples (with aggregation-reducing agent) is expressed as percent reduction when compared to control at 0 time point.

The next series concerns the target T1, Etanercept (ENBREL®) (Homo sapiens, UniProt P20333).
T1 construct: purchased ENBREL®
Description: Viscosity of Etanercept solutions (VISCOlab5000 or DV2T cone and plate viscometer). The class given is physicochemical. The following applies: for Viscosity, cP: 25 mM phosphate buffer pH 6.0, 25° C. The method, then: Commercially obtained Etanercept, ENBREL®, 25 mg as a lyophilized powder (25 mg Etanercept, 40 mg mannitol, 10 mg sucrose, and 1.2 mg Tromethamine and for reconstitution 0.9% benzyl alcohol in water) was dialyzed against 25 mM phosphate buffer, pH 6.0 for 24 hr at 4° C. with three changes. To the dialysed Etanercept different viscosity-reducing agent(s) was added individually or in combination and mixed until complete dissolution. […] The collected protein sample was stored at 4° C.
[formula] at 280 nm. […] Results
Commercially obtained Etanercept, ENBREL®, 25 mg as a lyophilized powder (25 mg Etanercept, 40 mg mannitol, 10 mg sucrose, and 1.2 mg Tromethamine and for reconstitution 0.9% benzyl alcohol in water) was dialyzed against 25 mM phosphate buffer, pH 6.0 for 24 hr at 4° C. with three changes.
To the dialysed samples of above protein agents, a combination of viscosity-reducing agents nicotinic acid (acid form) and tryptophan were added and mixed until complete dissolution. […] The collected protein samples were stored at 4° C.

Series [3] relates to Human Gamma Globulin (HGG), GLOBUCEL®. The series can be described thus: Viscosity of aqueous solutions of Human Gamma Globulin (Cambridge VISCOlab5000 or DV2T cone and plate viscometer).
For a further series, the system named is Bevacizumab (AVASTIN®). Description: Size Exclusion Chromatography of formulated Bevacizumab on storage. Type of series: physicochemical. The following applies: storage at 25° C., formulated with tryptophan + nicotinic acid (acid form), SEC.

Residues, ends and D or L forms follow the SMILES beside them.

T1 sequence (P20333 with tags, fused parts or gaps limits assumed): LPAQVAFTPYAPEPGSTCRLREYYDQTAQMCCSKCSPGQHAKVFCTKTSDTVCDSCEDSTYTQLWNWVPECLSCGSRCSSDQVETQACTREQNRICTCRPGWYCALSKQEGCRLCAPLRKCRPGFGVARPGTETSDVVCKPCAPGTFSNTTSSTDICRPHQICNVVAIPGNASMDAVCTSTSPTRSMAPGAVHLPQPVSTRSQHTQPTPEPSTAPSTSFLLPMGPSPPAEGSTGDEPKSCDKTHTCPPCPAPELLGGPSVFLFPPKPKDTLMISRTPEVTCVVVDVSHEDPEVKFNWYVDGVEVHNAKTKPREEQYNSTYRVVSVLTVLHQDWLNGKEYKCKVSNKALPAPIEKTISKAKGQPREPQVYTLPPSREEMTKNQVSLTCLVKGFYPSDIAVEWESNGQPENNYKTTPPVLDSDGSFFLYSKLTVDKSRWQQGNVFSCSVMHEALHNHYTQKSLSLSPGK

For “Rituximab: Commercially obtained Rituximab, RITUXAN®, dialyzed against 25 mM phosphate buffer, pH 6.0”, the results for the “Aggregation peak area (%)” value in the series on Rituximab (RITUXAN®) [1] (0 day) and with Rituximab (RITUXAN®) [1] (7 days) were 1.027% and 0.96%, respectively. The “Degradation peak area (%)” value in the series with Rituximab (RITUXAN®) [1] (0 day) and with Rituximab (RITUXAN®) [1] (7 days) was “Nil” in each case. In addition, the figures for the “Percent reduction in aggregation” value in the series on Rituximab (RITUXAN®) [2] (After 24 hours) and with Rituximab (RITUXAN®) [2] (After 48 hours) were 90% and 100%, respectively.

Regarding Etanercept, the “Viscosity, cP” value is on record as 2 cP with Etanercept (ENBREL®) (Etanercept 50 mg/mL, with 10 mg/mL nicotinic acid (acid form) + 6 mg/mL tryptophan); 35 cP in the series with Etanercept (ENBREL®) (Etanercept 50 mg/mL, without excipient); 3 cP with Etanercept (ENBREL®) (Etanercept 100 mg/mL, with 10 mg/mL nicotinic acid (acid form) + 6 mg/mL tryptophan); 72 cP with Etanercept (ENBREL®) (Etanercept 100 mg/mL, without excipient); 11 cP with Etanercept (ENBREL®) (Etanercept 150 mg/mL, with 10 mg/mL nicotinic acid (acid form) + 6 mg/mL tryptophan); 135 cP with Etanercept (ENBREL®) (Etanercept 150 mg/mL, without excipient). Also, the “Viscosity, cP” value with Etanercept (ENBREL®) (Etanercept 175 mg/mL, with 10 mg/mL nicotinic acid (acid form) + 6 mg/mL tryptophan) came to 17 cP; in the series with Etanercept (ENBREL®) (Etanercept 175 mg/mL, without excipient), 160 cP; with Etanercept (ENBREL®) (Etanercept 200 mg/mL, with 10 mg/mL nicotinic acid (acid form) + 6 mg/mL tryptophan) it was 23 cP; with Etanercept (ENBREL®) (Etanercept 200 mg/mL, without excipient), 230 cP; with Etanercept (ENBREL®) (Etanercept 225 mg/mL, with 10 mg/mL nicotinic acid (acid form) + 6 mg/mL tryptophan), 40 cP; with Etanercept (ENBREL®) (Etanercept 225 mg/mL, without excipient), 345 cP. Also, the “Viscosity, cP” value with Etanercept (ENBREL®) (Etanercept 250 mg/mL, with 10 mg/mL nicotinic acid (acid form) + 6 mg/mL tryptophan) is 65 cP; with Etanercept (ENBREL®) (Etanercept 250 mg/mL, without excipient) it was 439 cP; in the series with Etanercept (ENBREL®) (Etanercept 275 mg/mL, with 10 mg/mL nicotinic acid (acid form) + 6 mg/mL tryptophan) it was 77 cP; with Etanercept (ENBREL®) (Etanercept 275 mg/mL, without excipient) it was 1130 cP; in the series with Etanercept (ENBREL®) (Etanercept 300 mg/mL, with 10 mg/mL nicotinic acid (acid form) + 6 mg/mL tryptophan), 139 cP. Further, the “magnitude of viscosity-reducing effects” value with Etanercept (ENBREL®) (Etanercept 275±10 mg/mL, nicotinic acid (acid form) and tryptophan added to phosphate buffer) was found to be 14.6 fold.

Turning to `COC(=O)[C@H](Cc1ccccc1)NC(=O)[C@@H](N)CC(=O)O` [Aspartame] (H-Asp-Phe-OMe), the “Viscosity (cP) @ 25° C.” value stood at 51 cP in series [3] (HGG 140 mg/mL, excipient 10 mg/mL (34 mM), 25 mM citrate buffer pH 6.0) and 143 cP in series [3] (HGG 218 mg/mL, excipient 10 mg/mL (34 mM), 25 mM phosphate buffer pH 6.0).

With `N=C(N)NCCC[C@H](N)C(=O)O` [Arginine], the “Viscosity (cP) @ 25° C.” value in series [3] (HGG 205 mg/mL, excipient 10 mg/mL (58 mM), 25 mM phosphate buffer pH 6.0) stood at 85 cP; in series [3] (HGG 220 mg/mL, excipient 10 mg/mL (58 mM), 25 mM phosphate buffer pH 6.0), 197 cP; in series [3] (HGG 247 mg/mL, excipient 10 mg/mL (58 mM), 25 mM citrate buffer pH 6.0), 87 cP.

Consider `CC(=O)C(=O)[O-].[Na+]` [Pyruvate sodium salt], for which, in series [3] (HGG 213 mg/mL, excipient 10 mg/mL (91 mM), 25 mM phosphate buffer pH 6.0), the “Viscosity (cP) @ 25° C.” value amounted to 171 cP.

As to `N[C@@H](Cc1c[nH]cn1)C(=O)O` [Histidine], in series [3] (HGG 180 mg/mL, excipient 10 mg/mL (65 mM), 25 mM phosphate buffer pH 6.0), the “Viscosity (cP) @ 25° C.” value is 31 cP.

As to L-Pantothenic Acid hemicalcium salt, the “Viscosity (cP) @ 25° C.” value in series [3] (HGG 182 mg/mL, excipient 10 mg/mL (42 mM), 25 mM phosphate buffer pH 6.0) turned out to be 14 cP.

Regarding `CSCC[C@H](N)C(=O)O` [Methionine], the “Viscosity (cP) @ 25° C.” value in series [3] (HGG 228 mg/mL, excipient 10 mg/mL (67 mM), 25 mM phosphate buffer pH 6.0) came out at 170 cP.

For “Bevacizumab: Commercially obtained Bevacizumab, AVASTIN®, dialyzed against 25 mM phosphate buffer, pH 6.0”, in the series on Bevacizumab (AVASTIN®) (0 day), the “Degradation peak area (%)” value was “Nil” and the “Standard peak area (%)” value is 99.39%. Besides, in the series on Bevacizumab (AVASTIN®) (7 days), the “Degradation peak area (%)” value was “Nil” and the “Standard peak area (%)” value was 99.118%.

For the compound `O=c1ccn([C@@H]2O[C@H](CO)[C@@H](O)[C@H]2O)c(=O)[nH]1` [Uridine], the “Viscosity (cP) @ 25° C.” value in series [3] (HGG 203 mg/mL, excipient 10 mg/mL (41 mM), 25 mM phosphate buffer pH 6.0) is 28 cP.

Consider `Nc1ccn([C@@H]2O[C@H](CO)[C@@H](O)[C@H]2O)c(=O)n1` [Cytidine], for which the “Viscosity (cP) @ 25° C.” value in series [3] (HGG 218 mg/mL, excipient 10 mg/mL (41 mM), 25 mM phosphate buffer pH 6.0) is 203 cP.

Consider `NCC(=O)O` [Glycine], for which the “Viscosity (cP) @ 25° C.” value in series [3] (HGG 206 mg/mL, excipient 10 mg/mL ([…]), 25 mM phosphate buffer pH 6.0) is listed as 63 cP; in series [3] (HGG 208 mg/mL, excipient 10 mg/mL ([…]), 25 mM citrate buffer pH 6.0), 73 cP; in series [3] (HGG 228 mg/mL, excipient 10 mg/mL ([…]), 25 mM phosphate buffer pH 6.0), 186 cP.

On to `Nc1ncccn1` [2-Aminopyrimidine], for which the “Viscosity (cP) @ 25° C.” value in series [3] (HGG 120 mg/mL, excipient 10 mg/mL (105 mM), 25 mM phosphate buffer pH 6.0) worked out at 87 cP.

As for `OC[C@@H](O)[C@@H](O)[C@H](O)[C@@H](O)CO` [D-sorbitol], the “Viscosity (cP) @ 25° C.” value in series [3] (HGG 182 mg/mL, excipient 10 mg/mL (56 mM), 25 mM citrate buffer pH 6.0) amounted to 45 cP; in series [3] (HGG 240 mg/mL, excipient 10 mg/mL (56 mM), 25 mM phosphate buffer pH 6.0) it was 176 cP.
